From patent US12460006B2, “Antibodies against integrin alpha 11 beta 1” (Momenta Pharmaceuticals, Inc., priority 2019, dated 2025)
Substitutions are numbered along the chain they refer to.

T1: α11β1 expressed on the surface of CHO-K1 cells (Homo sapiens, UniProt Q9UKX5)
T1 construct: expressed in transfected cells; host or cells: CHO-K1
T1 sequence (Q9UKX5 23-1188): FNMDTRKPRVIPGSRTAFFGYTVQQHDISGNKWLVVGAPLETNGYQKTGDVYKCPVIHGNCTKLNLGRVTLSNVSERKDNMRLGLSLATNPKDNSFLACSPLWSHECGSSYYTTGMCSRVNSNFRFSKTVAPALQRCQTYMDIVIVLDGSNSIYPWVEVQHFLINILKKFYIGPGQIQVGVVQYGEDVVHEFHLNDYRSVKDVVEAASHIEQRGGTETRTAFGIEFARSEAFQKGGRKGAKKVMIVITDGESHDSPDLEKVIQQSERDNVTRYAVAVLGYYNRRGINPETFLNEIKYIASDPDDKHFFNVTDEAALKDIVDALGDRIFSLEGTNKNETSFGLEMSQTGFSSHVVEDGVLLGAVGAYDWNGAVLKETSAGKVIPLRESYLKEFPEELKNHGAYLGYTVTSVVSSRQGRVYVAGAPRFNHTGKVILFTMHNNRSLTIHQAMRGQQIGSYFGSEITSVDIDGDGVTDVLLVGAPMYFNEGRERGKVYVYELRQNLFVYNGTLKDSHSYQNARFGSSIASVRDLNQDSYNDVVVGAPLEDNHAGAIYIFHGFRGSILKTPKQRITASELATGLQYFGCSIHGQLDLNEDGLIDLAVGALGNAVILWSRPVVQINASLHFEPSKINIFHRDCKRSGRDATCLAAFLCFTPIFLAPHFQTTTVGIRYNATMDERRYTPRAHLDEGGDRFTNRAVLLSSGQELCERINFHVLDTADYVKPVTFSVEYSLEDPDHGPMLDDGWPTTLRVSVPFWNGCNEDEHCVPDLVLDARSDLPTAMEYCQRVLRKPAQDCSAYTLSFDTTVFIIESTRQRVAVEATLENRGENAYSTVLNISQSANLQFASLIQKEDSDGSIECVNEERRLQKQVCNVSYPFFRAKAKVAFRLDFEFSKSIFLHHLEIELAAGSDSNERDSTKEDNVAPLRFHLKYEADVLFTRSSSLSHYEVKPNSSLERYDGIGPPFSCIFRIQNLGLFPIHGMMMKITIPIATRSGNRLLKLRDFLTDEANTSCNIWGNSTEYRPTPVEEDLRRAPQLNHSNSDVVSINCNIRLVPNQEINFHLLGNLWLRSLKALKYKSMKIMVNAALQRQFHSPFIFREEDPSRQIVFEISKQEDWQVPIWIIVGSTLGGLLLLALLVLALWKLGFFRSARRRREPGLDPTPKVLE

B1: 8-I14: mouse anti-α11β1 mAb; VH SEQ ID NO: 109, VL SEQ ID NO: 110 (antibody, V domains shown)
VH: EVQLQQSGPELVKPGASVKKSCKASGYTFTDYYMHWVKQKPGQGLEWIGKIYPGSGNTHYNEKFKGKATLTADKSSSTAYMQLSSLTSEDSAVYFCATNYYGYRAMNYWGQGSSVTVSS
VL: DIHLTQSPSSLSASLGERISLTCRASQDIYISLNWFQQKPDGTIKLLIYGTSSLDSGVPKRFSGSRSGSDYSLTISSLESEDFADYYCLQYASSPYTFGGGTKLEIK
B2: 9-G05: mouse anti-α11β1 mAb; VH SEQ ID NO: 103, VL SEQ ID NO: 104 (antibody, V domains shown)
VH: EVQLQQSGPELVKPGASVKIPCKASGYTFPDYNMDWVKQSHGKSLEWIGYINPDNGGTIYNQKFKGKATLTVDKSSSTAYMELRSLTSEDTAVYYCARLDSSGYGYYAMDYWGQGTSVTVSS
VL: DIVLTQSPASLAVSLGQRATISCRASESVDNYGISFMHWYQQKPGQPPKLLIYRASNLDSEIPARFSGSGSRTDFTLTIDPVETDDVATYYCQQSYKDPRTFGGGTKLEIK
B3: 79E3E3: rat anti-α11β1 mAb; VH SEQ ID NO: 145, VL SEQ ID NO: 146 (antibody, V domains shown)
VH: MDWLWNLLFLMVVAQSAQAQIQLVQSGPEVKKPGESVKISCKASGYTFTDYAMNWVKQAPGNGLKWMGWINTQTGKPTYADDFKQRFVFSLETSARTTYLQINNLNIEDTATYFCTRLGTGNTKGFAYWGQGTLVTVSS
VL: MESQTHVLISLLLCVSGTCGDILINQSPASLTVSAGERVTMSCKSSQSLLYSENNQDYLAWYQQKPGQFPKLLIYGASNRHTGVPDRFTGSGSGTDFTLTISSVQAEDLADYYCEQTYRYPFTFGSGTKLEIK
B4: 9-E16: mouse anti-α11β1 mAb; VH SEQ ID NO: 111, VL SEQ ID NO: 112 (antibody, V domains shown)
VH: EVQLQQSGPELVKPGASVKISCKASGYTFTDYYMHWVKQKPGQGLEWIGEIYPGSGNPYYNEKFKGKATLTADKSSSSAYMQLSSLTSEDSAVYFCARTSYGRVGTGFAYWGQGTLVTVSA
VL: NFVMTQTPLSLPVSLGDQASISCRSSQSLLHSNGNTYLHWYLQKPGQSPKLLIYKVSNRFSGVPDRFSGSGSGTDFTLKINRVETEDLGIYFCSQSSHVPTFGAGTKLELK
B5: 8-P20: mouse anti-α11β1 mAb; VH SEQ ID NO: 105, VL SEQ ID NO: 106 (antibody, V domains shown)
VH: KVMLVESGGALVKPGGSLKLSCVASGFTFSNYAMSWVRQTPEKRLEWVATISSGGYYTYYPDSVKGRFTISRDNARNTLFLQMSSLRSEDTAMFYCAREDDYGRYSYTMDYWGQGTSVTVSS
VL: DVVMTQTPLSLPVSLGDQVSISCRCSQSLVHSNGNTYLHWYLQKPGQSPQLLIYKISNRFSGVPDRFSGSGSGTDFTLKISRVEAEDLGVYFCSQSTHVPYTFGGGTELEIK
B6: 8-J17: mouse anti-α11β1 mAb; VH SEQ ID NO: 113, VL SEQ ID NO: 114 (antibody, V domains shown)
VH: QVQLQQSGAELAKPGASVKMSCKASGYTFTNYWMHWVKQRPGQGLEWIGYINPNNGYTEYNQRFKDKATLTADRSSTTAYMQLSSLTSEDSAVYYCARSDIITTDYWGQGTTLTVSS
VL: B5 VL with V19A, C25S, H31Y, Q50K, I56V, Y101W, E108K
B7: 8H8E9: rat anti-α11β1 mAb; VH SEQ ID NO: 149, VL SEQ ID NO: 150 (antibody, V domains shown)
VH: MAVLVLLLCLVTFPSCALSQVQLKESGPGLVQPSQTLSLTCTVSGFSLTSNSVSWVRQAPGKGLEWMGAIWSGGSTDYNSALKSRLSISRDTSKSQVFLKMNSLQTEDTAIYFCTRSHWEPFDYWGQGVMVTVSS
VL: MESQTQALISLLLWVYGTCGDIVMTQSPFSLAVSEGEMVTINCKSSQGLLSSGNQKNYLAWYQQRPGQSPKLLIYYASTRQSGVPDRFIGGGSGTDFTLTISDVQAEDLADYYCLQHYSYPPTFGSGTKLEIK
B8: 6E5C11: rat anti-α11β1 mAb; VH SEQ ID NO: 151, VL SEQ ID NO: 152 (antibody, V domains shown)
VH: B7 VH with K24R, S54T, A59P, G73D, A81T, N102S
VL: B7 VL with F29L, M38T, I41M, G48S, L50F, R65K, G91S, A106T, S119N

Tested on: α1β1, α2β1 and/or α10β1
Test: Counter-screen for cross-reactivity to other collagen receptors
Type: binding, human
Details: cross-reactivity to α1β1, α2β1, α10β1
Procedure: Wistar rats were immunized with recombinant human α11β1 protein. An enzyme-linked immunosorbent assay (ELISA) was used to test an immune response against target human and mouse proteins. Subsequently, cell fusion (by electro fusion) was performed with animals that produced a good immune response. All fused cells were plated in a 96-well plate and supernatants were screened by ELISA against soluble human and mouse α11β1. Positive clones were counter-screened against human α1β1, α2β1 and α10β1. […] Purified antibodies were then generated from the selected clones and heavy chain and light chain variable domain sequences were obtained from each purified antibody.
10 mice from 5 different strains were immunized with an appropriate mixture of human α11β1, mouse α11β1 and tolerance breaking protein. Plasma titers were evaluated by ELISA against a mixture of human and mouse α11β1. Popliteal, inguinal, and iliac lymph nodes were collected. ELISA-positive anti-human/mouse α11β1 hybridomas were expanded and subjected to a secondary screen against human and mouse α11β1, control HIS protein, and a counter-screen was performed against human […], α2β1 and α10β1. Supernatant IgG concentration was sufficient for functional screening. Selected hybridomas satisfying all the criteria were cloned and clonal hybridomas were confirmed by ELISA against human and mouse α11β1 and subsequently scaled-up and IgGs were purified. Heavy and light chain variable regions of selected hybridomas were then sequenced.
α11β1 belongs to a family of collagen receptors and has a relatively high homology to them. Therefore, the novel antibodies of this invention were counter-screened against α1β1, α2β1 and/or α10β1. Table 2 includes results of cross-reactivity to the other receptors.

| Off Target | Molecule |
| --- | --- |
| No | B1 |
| No | B2 |
| No | B3 |
| No | B4 |
| No | B5 |
| Yes | B6 |
| No | B7 |
| No | B8 |

Target: human α11β1 (Homo sapiens, UniProt Q9UKX5)
Sequence (P05556 21-728 partner limits assumed, one chain of several): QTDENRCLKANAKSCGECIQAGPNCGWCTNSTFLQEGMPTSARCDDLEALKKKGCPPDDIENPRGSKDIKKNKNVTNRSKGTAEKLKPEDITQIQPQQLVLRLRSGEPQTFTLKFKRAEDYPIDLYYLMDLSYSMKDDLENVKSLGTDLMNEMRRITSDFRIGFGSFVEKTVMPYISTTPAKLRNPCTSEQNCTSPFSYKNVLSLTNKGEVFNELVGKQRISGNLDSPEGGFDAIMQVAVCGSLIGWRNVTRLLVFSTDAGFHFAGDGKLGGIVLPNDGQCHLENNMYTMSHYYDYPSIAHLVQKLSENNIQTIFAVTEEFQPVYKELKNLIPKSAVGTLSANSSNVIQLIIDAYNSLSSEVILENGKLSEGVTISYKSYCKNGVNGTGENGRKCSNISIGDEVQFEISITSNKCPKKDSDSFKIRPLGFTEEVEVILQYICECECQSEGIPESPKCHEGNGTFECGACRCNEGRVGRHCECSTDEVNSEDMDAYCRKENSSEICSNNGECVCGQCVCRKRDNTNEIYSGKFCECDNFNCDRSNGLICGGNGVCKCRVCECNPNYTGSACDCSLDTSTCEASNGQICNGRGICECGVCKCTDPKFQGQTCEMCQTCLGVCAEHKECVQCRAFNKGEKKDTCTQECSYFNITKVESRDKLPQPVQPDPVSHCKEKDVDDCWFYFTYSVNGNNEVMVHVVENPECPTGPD
Test: ELISA binding to recombinant human α11β1
Details: binding Yes/No
Procedure: (§1) 0.25 μg/mL of target antigen (recombinant human or mouse α11β1) was plated in a 96-well plate over night at 4° C. Plates were washed (PBS with 0.1% Tween-20), blocked (PBS with 2% BSA and 0.05% Tween-20) for 1 hour at room temperature and incubated with a range of antibody concentrations for 1 hour at room temperature. Subsequently, plates were washed and incubated with biotinylated anti-rabbit/mouse/human IgG in a 1:1000 dilution buffer and incubated for 1 hour at room temperature. After washing the plates, Streptavidin HRP was added at 1:200 in dilution buffer and incubated for 1 hour at room temperature. Ultra TMB ELISA substrate solution was added and the plates incubated for 5 minutes on a plate shaker. The reaction was stopped by adding stop solution to each well and plates were read at 450 nm.

| Human α11β1 ELISA | Molecule |
| --- | --- |
| Yes | B1 |
| Yes | B2 |
| Yes | B3 |
| Yes | B4 |
| Yes | B5 |
| Yes | B6 |
| Yes | B7 |
| Yes | B8 |

Target: T1, α11β1 expressed on the surface of CHO-K1 cells
Test: FACS antibody binding to CHO-K1 cells expressing human α11
Details: FACS
Procedure: 200,000 cells (wild-type CHO-K1 cells or CHO-K1 cells expressing human α11) were incubated with each antibody at desired concentrations in FACS buffer for 30 min at 4° C. Then, the cells were washed with FACS buffer and incubated with secondary antibody at 1:100 dilution for 30 minutes at 4° C. Cells were then washed and fixed with 1% PFA in PBS for 20 minutes at room temperature; washed again and read on a cytometer in FACS buffer.
Since integrins are large, transmembrane receptors that exist in different conformational shapes, experiments were performed to confirm that the novel antibodies also bound cell-expressed α11β1. A CHO-K1 cell line that endogenously expressed high levels of the β1 subunit was engineered to stably express human α11 (CHO-K1 hu α11).
Binding EC50 was estimated using data from Fluorescence-activated cell sorting (FACS) performed with CHO-K1 hu α11β1 cells.

| CHO-K1 binding EC50 (in words) | Molecule |
| --- | --- |
| low nanomolar range | B1 |
| not as potent | B2 |
| not as potent | B4 |
| low nanomolar range | B5 |
| low nanomolar range | B6 |

Same assay, conditions: binding Yes/No

| CHO-K1 FACS | Molecule |
| --- | --- |
| Yes | B1 |
| Yes | B2 |
| Yes | B3 |
| Yes | B4 |
| Yes | B5 |
| Yes | B6 |
| Yes | B7 |
| Yes | B8 |

Target: mouse α11β1 (Mus musculus, UniProt P61622)
Sequence (P61622 23-1141 limits assumed): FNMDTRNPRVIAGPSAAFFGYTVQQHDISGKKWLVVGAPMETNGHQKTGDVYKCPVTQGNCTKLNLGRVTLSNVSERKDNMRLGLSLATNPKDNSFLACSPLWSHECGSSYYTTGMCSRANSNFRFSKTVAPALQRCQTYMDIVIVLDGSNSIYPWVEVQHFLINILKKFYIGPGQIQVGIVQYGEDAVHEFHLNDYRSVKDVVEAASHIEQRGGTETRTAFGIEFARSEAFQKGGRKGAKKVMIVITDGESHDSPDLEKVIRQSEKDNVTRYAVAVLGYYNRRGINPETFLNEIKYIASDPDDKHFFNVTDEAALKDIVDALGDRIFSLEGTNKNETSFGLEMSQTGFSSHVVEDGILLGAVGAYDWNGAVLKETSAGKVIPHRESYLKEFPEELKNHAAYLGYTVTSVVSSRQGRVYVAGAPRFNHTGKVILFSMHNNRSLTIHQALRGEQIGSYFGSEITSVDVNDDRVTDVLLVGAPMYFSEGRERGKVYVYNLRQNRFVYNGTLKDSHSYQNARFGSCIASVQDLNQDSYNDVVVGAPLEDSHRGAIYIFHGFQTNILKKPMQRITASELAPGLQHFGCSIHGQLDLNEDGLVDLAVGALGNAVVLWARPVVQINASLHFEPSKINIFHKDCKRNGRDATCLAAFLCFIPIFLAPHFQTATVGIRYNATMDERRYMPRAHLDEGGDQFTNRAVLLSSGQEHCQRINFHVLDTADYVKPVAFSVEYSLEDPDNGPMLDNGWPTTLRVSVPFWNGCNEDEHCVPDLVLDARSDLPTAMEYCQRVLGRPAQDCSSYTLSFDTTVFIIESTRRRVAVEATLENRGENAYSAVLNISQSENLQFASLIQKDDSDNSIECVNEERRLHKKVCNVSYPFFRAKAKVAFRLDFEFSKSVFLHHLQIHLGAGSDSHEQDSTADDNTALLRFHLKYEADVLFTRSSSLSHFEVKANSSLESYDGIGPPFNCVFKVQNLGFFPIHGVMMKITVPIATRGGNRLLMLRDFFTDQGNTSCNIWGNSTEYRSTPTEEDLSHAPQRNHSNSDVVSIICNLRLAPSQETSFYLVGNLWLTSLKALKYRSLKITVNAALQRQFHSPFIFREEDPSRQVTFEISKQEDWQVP
Sequence (P09055 21-728 partner limits assumed): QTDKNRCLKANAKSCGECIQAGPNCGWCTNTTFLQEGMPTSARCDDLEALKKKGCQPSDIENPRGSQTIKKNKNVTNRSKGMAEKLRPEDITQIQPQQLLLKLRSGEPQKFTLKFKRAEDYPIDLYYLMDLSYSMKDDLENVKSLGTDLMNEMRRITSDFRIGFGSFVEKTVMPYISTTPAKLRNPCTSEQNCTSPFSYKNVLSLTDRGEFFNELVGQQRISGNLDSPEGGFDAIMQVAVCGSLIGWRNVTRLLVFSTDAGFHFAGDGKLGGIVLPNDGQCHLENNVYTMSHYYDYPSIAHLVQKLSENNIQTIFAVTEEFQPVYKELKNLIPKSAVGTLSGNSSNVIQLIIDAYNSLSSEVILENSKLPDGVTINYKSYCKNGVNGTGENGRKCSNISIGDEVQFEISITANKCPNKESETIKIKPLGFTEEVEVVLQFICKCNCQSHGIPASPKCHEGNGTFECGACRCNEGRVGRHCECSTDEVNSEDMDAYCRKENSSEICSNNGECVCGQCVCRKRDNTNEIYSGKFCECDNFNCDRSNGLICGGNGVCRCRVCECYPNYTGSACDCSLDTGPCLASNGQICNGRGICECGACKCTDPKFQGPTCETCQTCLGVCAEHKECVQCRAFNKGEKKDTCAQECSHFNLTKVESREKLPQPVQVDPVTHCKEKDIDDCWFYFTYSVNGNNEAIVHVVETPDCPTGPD
Test: ELISA binding to recombinant mouse α11β1
Details: not given
Procedure: as §1

| binding to mouse α11β1 | Molecule |
| --- | --- |
| cross-reacts with mouse α11β1 | B3 |

Same assay, conditions: binding Yes/No

| Murine α11β1 ELISA | Molecule |
| --- | --- |
| Yes | B1 |
| Yes | B2 |
| Yes | B3 |
| Yes | B4 |
| No | B5 |
| No | B6 |
| No | B7 |
| No | B8 |
